Measured values from publication PMC3664827.

Test system: Lsr2 (Mycobacterium tuberculosis)
Test: magnetic tweezers

lambda DNA 48,502 bp
Kd: 0.0575 µM
